Experimental data: PMC8234031, “Modular Assembly of Phosphite Dehydrogenase and Phenylacetone Monooxygenase for Tuning Cofactor Regeneration” (Biomolecules, 2021)

Key:
[1] = target: PTDHI (phosphite dehydrogenase with a C-terminal RIDD tag)
[2] = target: PTDHA2 (phosphite dehydrogenase with a C-terminal RIAD–RIAD tag); assay: SEC; each purified tagged protein alone, in the absence of any other tagged protein; Superdex 200 (10/300), 50 mM Tris–HCl with 150 mM NaCl, pH 7.5
[3] = target: PTDHA (phosphite dehydrogenase with a C-terminal RIAD tag); assay: as above

Row | conversion of 5.0 mM bicyclo[3.2.0]hept-2-en-6-one after 24 h by the mixture of the two tagged enzymes [1] | Substance | other results
1 | 78% | PAMOA2 (phenylacetone monooxygenase with a C-terminal RIAD–RIAD tag) (enzyme) | 
2 |  | PTDHA2 (phosphite dehydrogenase with a C-terminal RIAD–RIAD tag) (enzyme) | stoichiometry N [2]: 2
3 |  | PTDHA (phosphite dehydrogenase with a C-terminal RIAD tag) (enzyme) | stoichiometry N [3]: 2
4 | 78% | PAMOA (phenylacetone monooxygenase with a C-terminal RIAD tag) (enzyme) | 
